# Assay results from patent EP1605964B1 (GEORG-SPEYER-HAUS CHEMOTHERAPEUTISCHES FORSCHUNGSINSTITUT, dated 2004).
# B1: peptide aptamer KDI4 (SEQ ID NO:3), displayed in E. coli thioredoxin A (TrxA) (designed binder, not shown: large carriers)
# chain: MSDKIIHLTDDSFDTDVLKADGAILVDFWAEWCGLSFQLSPLSLVHRWGTTVDVPCKMIAPILDEIADEYQGKLTVAKLNIDQNPGTAPKYGIRGIPTLLLFKNGEVAATKVGALSKGQLKEFLDANLA
# notes: Built as the yeast two-hybrid prey; The construct used in the GST pulldown is not described
# B2: peptide aptamer KDI1 (SEQ ID NO:1), displayed in E. coli thioredoxin A (TrxA) (designed binder, not shown: large carriers)
# chain: MSDKIIHLTDDSFDTDVLKADGAILVDFWAEWCGVFGVSWVVGFWCQMHRRLVCPCKMIAPILDEIADEYQGKLTVAKLNIDQNPGTAPKYGIRGIPTLLLFKNGEVAATKVGALSKGQLKEFLDANLA
# notes: The construct used in the GST pulldown is not described
# B3: peptide aptamer KDI3 (SEQ ID NO:2), displayed in E. coli thioredoxin A (TrxA) (designed binder, not shown: large carriers)
# chain: MSDKIIHLTDDSFDTDVLKADGAILVDFWAEWCGTFSPVVLLYRLFLATVLIWAPCKMIAPILDEIADEYQGKLTVAKLNIDQNPGTAPKYGIRGIPTLLLFKNGEVAATKVGALSKGQLKEFLDANLA
# notes: as for B1
# Target: T1, Gal4 DNA binding domain alone (UniProt P04386 1-147)
# T1 construct: Negative control bait in the yeast two-hybrid retransformation
# T1 sequence (P04386 1-147 limits assumed): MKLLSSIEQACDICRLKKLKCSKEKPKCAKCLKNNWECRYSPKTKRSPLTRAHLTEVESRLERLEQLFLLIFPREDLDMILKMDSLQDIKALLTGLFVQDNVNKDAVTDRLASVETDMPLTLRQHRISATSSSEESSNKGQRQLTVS
# Test: yeast two-hybrid, retransformation of rescued plasmids
row,Binder,binding result
1,B1,no binding
2,B2,no binding
3,B3,no binding
